Laboratory results reported in IntAct's records for PubMed 24207126.

B1: Eukaryotic translation initiation factor 4E-binding protein 2 (Homo sapiens), Q13542 (parent)
chain: MSSSAGSGHQPSQSRAIPTRTVAISDAAQLPHDYCTTPGGTLFSTTPGGTRIIYDRKFLLDRRNSPMAQTPPCHLPNIPGVTSPGTLIEDSKVEVNNLNNLNNHDRKHAVGDDAQFEMDI

Variants of: B1
Settings: with if4e_human EIF4E

Row | Variant | effect of a mutation on the interaction
1 | MSSSAGSGHQPSQSRAIPTRTVAISDAAQLPHDYCTTPGGTLFSTTPGGTRIIADRKFALDRRNSPMAQTPPCHLPNAAAAASPGTLIEDSKVEVNNLNNLNNHDRKHAVGDDAQFEMDI [Y54A;L59A;I78A;P79A;G80A;V81A;T82A] | disrupting interaction strength

Variants of: B1
Settings: with if4e_human EIF4E
Remark: another data set of the same source

Row | Variant | effect of a mutation on the interaction
2 | MSSSAGSGHQPSQSRAIPTRTVAISDAAQLPHDYCTTPGGTLFSTTPGGTRIIADRKFALDRRNSPMAQTPPCHLPNIPGVTSPGTLIEDSKVEVNNLNNLNNHDRKHAVGDDAQFEMDI [Y54A;L59A] | decreasing interaction strength
3 | MSSSAGSGHQPSQSRAIPTRTVAISDAAQLPHDYCTTPGGTLFSTTPGGTRIIYDRKFLLDRRNSPMAQTPPCHLPNAAAAASPGTLIEDSKVEVNNLNNLNNHDRKHAVGDDAQFEMDI [I78A;P79A;G80A;V81A;T82A] | decreasing interaction strength
